The source of these data is US20100015126A1, “Methods of Binding of Cross-Beta Structures By Chaperones” (priority 2006, published 2010).

To fix the notation:
B1: CDNA FLJ14473 fis, clone MAMMA1001080, highly similar to Homo sapiens SNC73 protein (SNC73) mRNA, immunoglobulin heavy constant alpha 1 (protein, UniProt P01876 1-398, looked up)
Immunoglobulin heavy constant …: ASPTSPKVFPLSLCSTQPDGNVVIACLVQGFFPQEPLSVTWSESGQGVTARNFPPSQDASGDLYTTSSQLTLPATQCLAGKSVTCHVKHYTNPSQDVTVPCPVPSTPPTPSPSTPPTPSPSCCHPRLSLHRPALEDLLLGSEANLTCTLTGLRDASGVTFTWTPSSGKSAVQGPPERDLCGCYSVSSVLPGCAEPWNHGKTFTCTAAYPESKTPLTATLSKSGNTFRPEVHLLPPPSEELALNELVTLTCLARGFSPKDVLVRWLQGSQELPREKYLTWASRQEPSQGTTTFAVTSILRVAAEDWKKGDTFSCMVGHEALPLAFTQKTIDRLADWQMPPPYVVLDLPQETLEEETPGANLWPTTITFLTLFLLSLFYSTALTVTSVRGPSGNREGPQY
B2: Histidine-rich glycoprotein precursor (protein)
chain: VSPTDCSAVEPEAEKALDLINKRRRDGYLFQLLRIADAHLDRVENTTVYYLVLDVQESDCSVLSRKYWNDCEPPDSRRPSEIVIGQCKVIATRHSHESQDLRVIDFNCTTSSVSSALANTKDSPVLIDFFEDTERYRKQANKALEKYKEENDDFASFRVDRIERVARVRGGEGTGYFVDFSVRNCPRHHFPRHPNVFGFCRADLFYDVEALDLESPKNLVINCEVFDPQEHENINGVPPHLGHPFHWGGHERSSTTKPPFKPHGSRDHHHPHKPHEHGPPPPPDERDHSHGPPLPQGPPPLLPMSCSSCQHATFGTNGAQRHSHNNNSSDLHPHKHHSHEQHPHGHHPHAHHPHEHDTHRQHPHGHHPHGHHPHGHHPHGHHPHGHHPHCHDFQDYGPCDPPPHNQGHCCHGHGPPPGHLRRRGPGKGPRPFHCRQIGSVYRLPPLRKGEVLPLPEANFPSFPLPHHKHPLKPDNQPFPQSVSESCPGKFKSGFPQVSMFFTHTFPK
B3: Apolipoprotein A-IV precursor (protein)
chain: EVSADQVATVMWDYFSQLSNNAKEAVEHLQKSELTQQLNALFQDKLGEVNTYAGDLQKKLVPFATELHERLAKDSEKLKEEIGKELEELRARLLPHANEVSQKIGDNLRELQQRLEPYADQLRTQVSTQAEQLRRQLTPYAQRMERVLRENADSLQASLRPHADELKAKIDQNVEELKGRLTPYADEFKVKIDQTVEELRRSLAPYAQDTQEKLNHQLEGLTFQMKKNAEELKARISASAEELRQRLAPLAEDVRGNLRGNTEGLQKSLAELGGHLDQQVEEFRRRVEPYGENFNKALVQQMEQLRQKLGPHAGDVEGHLSFLEKDLRDKVNSFFSTFKEKESQDKTLSLPELEQQQEQQQEQQQEQVQMLAPLES
B4: Galectin-3-binding protein precursor (protein)
chain: VNDGDMRLADGGATNQGRVEIFYRGQWGTVCDNLWDLTDASVVCRALGFENATQALGRAAFGQGSGPIMLDEVQCTGTEASLADCKSLGWLKSNCRHERDAGVVCTNETRSTHTLDLSRELSEALGQIFDSQRGCDLSISVNVQGEDALGFCGHTVILTANLEAQALWKEPGSNVTMSVDAECVPMVRDLLRYFYSRRIDITLSSVKCFHKLASAYGARQLQGYCASLFAILLPQDPSFQMPLDLYAYAVATGDALLEKLCLQFLAWNFEALTQAEAWPSVPTDLLQLLLPRSDLAVPSELALLKAVDTWSWGERASHEEVEGLVEKIRFPMMLPEELFELQFNLSLYWSHEALFQKKTLQALEFHTVPFQLLARYKGLNLTEDTYKPRIYTSPTWSAFVTDSSWSARKSQLVYQSRRGPLVKYSSDYFQAPSDYRYYPYQSFQTPQHPSFLFQDKRVSWSLVYLPTIQSCWNYGFSCSSDELPVLGLTKSGGSDRTIAYENKALMLCEGLFVADVTDFEGWKAAIPSALDTNSSKSTSSFPCPAGHFNGFRTVIRPFYLTNSSGVD
B5: IGHM protein, immunoglobulin heavy chain mu (heavy chain disease protein) (protein)
chain: GSASAPTLFPLVSCENSPSDTSSVAVGCLAQDFLPDSITFSWKYKNNSDISSTRGFPSVLRGGKYAATSQVLLPSKDVMQGTDEHVVCKVQHPNGNKEKNVPLPVIAELPPKVSVFVPPRDGFFGNPRKSKLICQATGFSPRQIQVSWLREGKQVGSGVTTDQVQAEAKESGPTTYKVTSTLTIKESDWLGQSMFTCRVDHRGLTFQQNASSMCVPDQDTAIRVFAIPPSFASIFLTKSTKLTCLVTDLTTYDSVTISWTRQNGEAVKTHTNISESHPNATFSAVGEASICEDDWNSGERFTCTVTHTDLPSPLKQTISRPKGVALHRPDVYLLPPAREQLNLRESATITCLVTGFSPADVFVQWMQRGQPLSPEKYVTSAPMPEPQAPGRYFAHSILTVSEEEWNTGETYTCVVAHEALPNRVTERTVDKSTGKPTLYNVSLVMSDTAGTCY
B6: FLJ00385 protein (Fragment), immunoglobulin heavy constant mu (protein)
chain: B5 chain
B7: IGHM protein, immunoglobulin heavy constant gamma 2 (protein)
chain: ASTKGPSVFPLAPCSRSTSESTAALGCLVKDYFPEPVTVSWNSGALTSGVHTFPAVLQSSGLYSLSSVVTVPSSNFGTQTYTCNVDHKPSNTKVDKTVERKCCVECPPCPAPPVAGPSVFLFPPKPKDTLMISRTPEVTCVVVDVSHEDPEVQFNWYVDGVEVHNAKTKPREEQFNSTFRVVSVLTVVHQDWLNGKEYKCKVSNKGLPAPIEKTISKTKGQPREPQVYTLPPSREEMTKNQVSLTCLVKGFYPSDISVEWESNGQPENNYKTTPPMLDSDGSFFLYSKLTVDKSRWQQGNVFSCSVMHEALHNHYTQKSLSLSPGK
B8: complement C4a (protein, UniProt P0C0L4 680-756, looked up)
C4a anaphylatoxin: NVNFQKAINEKLGQYASPTAKRCCQDGVTRLPMMRSCEQRAARVQQPDCREPFLSCCQFAESLRKKSRDKGQAGLQR
modifications: C4a anaphylatoxin

One assay deals with T1, BiP-Sepharose (Homo sapiens, UniProt P11021).
T1 construct: The human BiP gene except the signal peptide encoding region was obtained from Geneart (Germany); linker […]; made in house; host or cells: HEK 293E cells, transient transfection, PABC674 vector; secreted into the medium
T1 sequence (P11021 19-654): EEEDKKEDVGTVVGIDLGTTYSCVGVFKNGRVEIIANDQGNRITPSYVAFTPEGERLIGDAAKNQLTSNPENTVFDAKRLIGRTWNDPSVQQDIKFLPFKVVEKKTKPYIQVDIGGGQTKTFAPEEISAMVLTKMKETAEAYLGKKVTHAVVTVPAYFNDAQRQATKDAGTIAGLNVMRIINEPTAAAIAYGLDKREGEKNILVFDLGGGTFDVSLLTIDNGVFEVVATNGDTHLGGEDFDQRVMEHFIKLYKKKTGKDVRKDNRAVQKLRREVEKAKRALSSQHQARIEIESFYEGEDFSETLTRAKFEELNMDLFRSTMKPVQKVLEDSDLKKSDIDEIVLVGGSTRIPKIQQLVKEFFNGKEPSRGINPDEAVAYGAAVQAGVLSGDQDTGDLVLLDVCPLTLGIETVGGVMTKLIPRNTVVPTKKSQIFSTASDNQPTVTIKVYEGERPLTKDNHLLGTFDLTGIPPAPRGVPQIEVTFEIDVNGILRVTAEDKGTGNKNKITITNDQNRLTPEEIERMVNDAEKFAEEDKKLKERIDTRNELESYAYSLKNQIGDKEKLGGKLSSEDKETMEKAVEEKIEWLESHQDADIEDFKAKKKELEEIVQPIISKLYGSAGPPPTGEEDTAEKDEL
The assay can be described thus: Experiment 2: BiP-Sepharose extraction from six synovial fluid samples of RA patients and mass spectrometry. Type of assay: binding. Particulars: Sample 1B; BiP-Sepharose eluate, synovial fluid of RA patient. On the procedure:
(§1) Six samples were incubated with the BiP-Sepharose, IgIV-Sepharose and the control-Sepharose: Normal pooled plasma, plasma of a patient I or of a patient II, with AL amyloidosis, serum of a patient III with RA (Rheumatoid Factor (RF) titer 682), control serum and synovial fluid of a patient IV with RA (RF titer 23). All samples were diluted 20× in HBS and applied to 200 μl beads in two volumes of 500 μl. One volume was incubated for 4 h at RT and supernatant was discarded after centrifugation (2 minutes at 1400 rpm). Subsequently, the second volume was applied to the same matrix and incubated overnight on a roller device at 4° C. […] To collect the eluates, the matrices were centrifuged and the two eluates were pooled for each sample.
(§2) Protein digests were desalted as described (Rappsilber et al., 2003), vacuum dried and dissolved in 2.5% formic acid.
(§3) For analysis of peptide mixtures, an Agilent 1100 HPLC system (Agilent Technologies) connected to a Thermo Finnigan LTQ-MS (Thermo Electron, Bremen, Germany) was used. Protein digests were injected on a trap column (Reprosil C18 RP (Dr Maisch, Germany), 20 mm×100 μm I.D.) at 5 μl/minute. Subsequently, the peptides were transferred with a split-reduced flow rate of 100 nL/minute solvent A (0.1 M acetic acid) on the analytical column (Reprosil C18 RP, 20 cm×50 μm I.D.). […] The column effluent was directly introduced into the ESI source of the mass spectrometer via a butt-connected nano-ESI emitter (New Objectives, Woburn, Mass.). The mass spectrometer was operated in the positive ion mode and parent ions were selected for fragmentation in data-dependent mode.
(§4) After mass spectrometric measurements, peak lists were generated using BioWorks software (Thermo Electron, Bremen, Germany). Protein identification was performed using Mascot software (www.matrixscience.com) by searching the IPIhuman database (version 3.24, downloaded from ftp://ftp.ebi.ac.uk/pub/databases/IPI/current) using the following settings: fully tryptic peptides, peptide tolerance 0.8 Da, MS/MS tolerance 0.9 Da, 1 missed cleavage allowed, carbamidomethyl (Cys) and oxidation (Met) as fixed and variable modification, respectively. The Scaffold software package (www.proteomesoftware.com) was used to parse the data and to filter peptides at a confidence level of 95%, allowing only protein identification with at least 2 peptides identified.
Those samples are listed below: • 1. […] One difference when compared to the protocol described above is that now with the twelve samples, elution buffer comprised 1 M NaCl. Again, a misfolded protein or a protein binding to misfolded protein is identified uniquely in the synovial fluid when no or a relatively very low number of fragments are detected in eluates of control-Sepharose.
For the molecule B1, the “# of unique peptides” value came out at 2.
With B2, the “# of unique peptides” value came to 2.
Consider B3, for which the “# of unique peptides” value was 3.
Same read-out and setting: the value for B4 was 1; that for B5 was 3.
The same measure, in the same setting: the value for B6 was 1; that for B7 was 1.

Staying with this assay, now noted: Sample 2B; BiP-Sepharose eluate, synovial fluid of RA patient.
Regarding B2, the “# of unique peptides” value is 1.
Take B6: the “# of unique peptides” value is listed as 1.
Same read-out and setting: under B7 stands 1.

Staying with this assay, now noted: Sample 3B; BiP-Sepharose eluate, synovial fluid of RA patient.
In the case of B1, the “# of unique peptides” value came out at 1.
For the molecule B4, the “# of unique peptides” value stood at 1.
As for B5, the “# of unique peptides” value amounted to 1.
With B6, the “# of unique peptides” value worked out at 2.

The same assay, now with this note: Sample 5B; BiP-Sepharose eluate, synovial fluid of RA patient.
In the case of B1, the “# of unique peptides” value is on record as 1.
Same read-out and setting: the value for B2 was 1.

The target of another assay is T1, BiP-Sepharose. Nature of the assay: BiP-Sepharose extraction of proteins from patient plasma, serum, synovial fluid and mass-spectrometric identification. Particulars: compared to AL amyloidosis patient II. It is filed as binding. The method, then:
BiP was coated on CNBr-Sepharose (GE-Healthcare, Amersham Biosciences). Immobilization of BiP was performed essentially as described elsewhere in this application for NHS-Sepharose. CNBr-matrix was dissolved at 200 mg/ml in 1 mM HCl and treated the same as the NHS-matrix, except for an additional 5 minutes activation step in 1 mM HCl on a roller device before washing in this buffer. BiP was diluted in immobilization buffer (50 mM NaCl and 40 mM NaHCO3) to a concentration of 820 μg/ml. A total volume of 2 ml BiP solution (1640 μg BiP) was incubated with 360 mg beads. Negative control matrix was exposed to immobilization buffer, only. After overnight immobilization matrix was blocked with Tris and washed.
as §1, §2, §3, §4
Regarding B8, the “Specific binding to BiP-Sepharose from normal pooled plasma” value is reported as “specifically bound”.
